# In doi:10.1101/2025.09.11.675605:
# How the values were obtained:
# [1] = target: Human Epidermal Growth Factor Receptor 2 (human (endogenous in SKOV-3)) (UniProt P04626); test: flow cytometry on cells
# [2] = target: encapsulin (MSMEI_5672) from Mycobacterium smegmatis mc^2155 with C-terminal Strep-tag (Mycobacterium smegmatis mc^2155); test: AF4-MALS
substance,measurement,setting,value
"^ZHEREnc{eGFP}: encapsulin nanocompartment with ZHER_(2:342) affibody-decorated shell, loaded with eGFP (complex)",fold MFI elevation,[1],62 fold
eGFP with C-terminal encapsulin localization sequence,stoichiometry N (eGFP molecules per nanocompartment),[2],17
tandem cytosine deaminase with C-terminal encapsulin localization sequence (enzyme),stoichiometry N (tdCD molecules per nanocompartment),[2],18.7
